B1: TPR t1 (parent)
chain: GACCAAUCUGCCCUCAGAGCUCGAGAACAUCUUCGGAUGCAGAGGAGGCAGGCUUCGGUGGCGCGAUAGCGCCAACGUCCUCAACCUCCAAUGCAUCCCACCACAUGAUGAUGCCUGAAGAGCCUUGGUUUUUUG

Variants of: B1
Test: polymerase ribozyme fitness, log enrichment relative to wild type (log ratio); higher = more active; in vitro selection for triplet polymerase activity
Procedure, shortened: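 Fitness measures genotype enrichment against wild-type enrichment on a logarithmic scale, with inverse-variance-weighted averaging of replicates. The logarithm is base 2, and genotypes were kept only with ≥10 input reads and ≥1 read per output in Illumina sequencing. The sequenced libraries came from one triplicate in vitro selection round, including frozen incubation at −7 °C, of PCR-built, transcribed mutant libraries of each subunit of a heterodimeric triplet polymerase ribozyme.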

Compared with C8A C53A U92A A121U, C8U C101A is higher in “polymerase ribozyme fitness (log ratio)” value: -1.12 for the first, -0.038 for the second.

Compared with C12U, C8G C72U is lower in “polymerase ribozyme fitness (log ratio)” value: 0.39 for the first, 0.18 for the second.

First: A26U G60U
Second: U38A G58C C70U C115A
The “polymerase ribozyme fitness (log ratio)” value of the first is lower: -3.37 for the first, -1.72 for the second.

First: U59G C85U U87A U106A
Second: G69A G117U
The “polymerase ribozyme fitness (log ratio)” value of the first is higher: -0.914 for the first, -5.17 for the second.

Compared with C115G G117A G135A, C80U C86U C114G C124G U125A is lower in “polymerase ribozyme fitness (log ratio)” value: -3.04 for the first, -3.38 for the second.

Going from C4U C15U A18G G113A to C13U A46G C104G, the “polymerase ribozyme fitness (log ratio)” value falls from -3.08 to -5.37.

First: C34A G60C C97A C115G
Second: A41G C73U
The “polymerase ribozyme fitness (log ratio)” value of the first is lower: -5.15 for the first, -0.342 for the second.

First: G77A U81C
Second: C28A G60C
The “polymerase ribozyme fitness (log ratio)” value of the first is higher: 0.0727 for the first, -4.02 for the second.

First: G10A G71C U81A A100C
Second: C15A A43U
The “polymerase ribozyme fitness (log ratio)” value of the first is lower: -4.69 for the first, -3.28 for the second.

Compared with A46G U55C C70U A100U G127A, G60U G77A U131A is higher in “polymerase ribozyme fitness (log ratio)” value: -2.53 for the first, -0.885 for the second.

Compared with C72U U116G, C11U U106A is higher in “polymerase ribozyme fitness (log ratio)” value: -2.57 for the first, -0.58 for the second.

Compared with G60A C70U, A29G C62U is lower in “polymerase ribozyme fitness (log ratio)” value: -1.22 for the first, -1.68 for the second.

Compared with U59G U78C C115U U130C, G39U G52C A95U C115A A118G is lower in “polymerase ribozyme fitness (log ratio)” value: -1.13 for the first, -3.5 for the second.

Going from G10U G42A G45U to C85A, the “polymerase ribozyme fitness (log ratio)” value rises from -3.02 to -1.96.

Going from G71A A90G to G44U C62G G117A, the “polymerase ribozyme fitness (log ratio)” value falls from -1.65 to -4.71.

First: C11A C53G G69U C72U
Second: G48A G93C C114A
The “polymerase ribozyme fitness (log ratio)” value of the first is higher: -1.37 for the first, -2.27 for the second.

Going from G45U C53U G61A A105U to U55C A83C U116C, the “polymerase ribozyme fitness (log ratio)” value rises from -2.59 to -2.32.

Compared with C3A G61A C79G U112A G135C, G77U U131G is higher in “polymerase ribozyme fitness (log ratio)” value: -2.83 for the first, -1.01 for the second.

Going from C3A U9G C98U to C12U G44U U55C, the “polymerase ribozyme fitness (log ratio)” value rises from -1.51 to -0.924.

First: A6U G44A C94A
Second: C62U G117C G128A
The “polymerase ribozyme fitness (log ratio)” value of the first is higher: -1.69 for the first, -6.43 for the second.

Compared with C28G C72A C98A G122U, C22A A26G A83U is higher in “polymerase ribozyme fitness (log ratio)” value: -5.55 for the first, -3.1 for the second.

Compared with C13A G52U U54C C70U C124U, C72G U81C U87C A100U is lower in “polymerase ribozyme fitness (log ratio)” value: -1.03 for the first, -2.07 for the second.

Compared with C70A C85U C88U G122U C124G, U21A A50G A95G A105C is lower in “polymerase ribozyme fitness (log ratio)” value: -2.37 for the first, -3.34 for the second.

Going from U9G C28U G117C U131G to A16U A105C G120U, the “polymerase ribozyme fitness (log ratio)” value rises from -4.94 to -3.61.

Going from G23A C49A to G36U C73U A119U, the “polymerase ribozyme fitness (log ratio)” value rises from -5.5 to -1.63.

First: C11G G19C G60A C123A U129C
Second: A43C
The “polymerase ribozyme fitness (log ratio)” value of the first is lower: -2.66 for the first, -2.17 for the second.

C8A G39A G44C C82U C86U G127C and G42U C72G are within 0.2 log units of each other in “polymerase ribozyme fitness (log ratio)” value: -2.71 for the first, -2.53 for the second.

First: G23C C123U
Second: G57U G60A C80U G122U
The “polymerase ribozyme fitness (log ratio)” value of the first is lower: -5.53 for the first, -2.06 for the second.

Going from A43U U59A A66U to A5G C49U C70U C72U A121U U133G, the “polymerase ribozyme fitness (log ratio)” value rises from -4.54 to 0.312.

First: G23U U33G C49G C53G U59G G71A U78A A84U C94G A100U
Second: G63A U87C
The “polymerase ribozyme fitness (log ratio)” value of the first is lower: -8.02 for the first, -0.482 for the second.

Compared with C13A C72U U92C U133A, C49A A50C A119G is higher in “polymerase ribozyme fitness (log ratio)” value: -3.18 for the first, 0.187 for the second.

Compared with G93A U116A U130G, A5C C12A G61U G113C is higher in “polymerase ribozyme fitness (log ratio)” value: -4.69 for the first, -2.74 for the second.

Going from C56U G135U to C11A C13G C72U C88G G113A, the “polymerase ribozyme fitness (log ratio)” value falls from -1.18 to -5.81.

First: C80A U112G
Second: G19U G44A C70A C72U
The “polymerase ribozyme fitness (log ratio)” value of the first is higher: -4.16 for the first, -6.42 for the second.

Going from U87A C94A to C13G C62A C82A, the “polymerase ribozyme fitness (log ratio)” value falls from -0.438 to -3.18.

First: G19A A26G U112C A118U
Second: A43C G44C G71C A118U U133G
The “polymerase ribozyme fitness (log ratio)” value of the first is lower: -3.63 for the first, -1.6 for the second.

Compared with C49A C104G A111C, C11A A84G is higher in “polymerase ribozyme fitness (log ratio)” value: -6.5 for the first, -2.26 for the second.

Compared with A18C A37G C62G, C8G G57A A84U G120U is higher in “polymerase ribozyme fitness (log ratio)” value: -6.59 for the first, 0.672 for the second.

Going from C15U C20A C72U C86U to G39A C62U A83U U87G, the “polymerase ribozyme fitness (log ratio)” value rises from -3.76 to -0.927.

Compared with G48C A50G G51U C56G G117A, C56A C104U G117A is higher in “polymerase ribozyme fitness (log ratio)” value: -5.49 for the first, -1.3 for the second.

First: G93C C98U A121U
Second: G52A G61A C79G
The “polymerase ribozyme fitness (log ratio)” value of the first is higher: 1.01 for the first, -0.673 for the second.

With C3U A37C G122A the “polymerase ribozyme fitness (log ratio)” value was -2.49.

From the RNAGym collection of RNA variant scans (doi:10.1073/pnas.2313332121)
